In patent publication US20150362488:

Tested on: RecQ helicase (Escherichia coli)
Settings: single-molecule hairpin re-zipping blockage (magnetic tweezers); no ATP; Ftest 10 pN; non-specific binding along template

“mechanically opened DNA hairpin (ssDNA template)” was tested, and the K half was 0.226 nM.
